The record followed here is the supplement of paper PMC11316812.

± gives the standard deviation of the averaged measurements.

The subject of one data set is hTERT-HMEC. Put plainly: percentage of EdU-negative (G0-arrested) nuclei per well, 72 h; higher = more G0 arrest. Particulars: reference: sequence is the full UniProt precursor, the tested protein was the secreted form or ectodomain.
For another data set, the system named is MCF7. Described as above. Particulars: reference: sequence is the full UniProt precursor, the tested protein was the secreted form or ectodomain.
Where [1] appears, read: protein concentration 0.00725 µM.
Setting [2] is: protein concentration 0.0725 µM.
Setting [3] is: protein concentration 0.03125 µM.
Where [4] appears, read: protein concentration 0.3125 µM.
Setting [5] is: protein concentration 0.01825 µM.
Where [6] appears, read: protein concentration 0.1825 µM.
Setting [7] is: protein concentration 0.0351429 µM.
The mark [8] stands for this setting: protein concentration 0.351429 µM.
Setting [9] is: protein concentration 0.0225 µM.
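Further: secreted proteins added to cultured cells, EdU pulse at the end, nuclei found by Hoechst imaging, EdU status from nuclear versus surrounding ring intensity ratio, PBS as neutral control.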

As to “MLLPKKMKLLLFLVSQMAILALFFHMYSHNISSLSMKAQPERMHVLVLSSWRSGSSFVGQLFGQHPDVFYLMEPAWHVWMTFKQSTAWMLHMAVRDLIRAVFLCDMSVFDAYMEPGPRRQSSLFQWENSRALCSAPACDIIPQDEIIPRAHCRLLCSQQPFEVVEKACRSYSHVVLKEVRFFNLQSLYPLLKDPSLNLHIVHLVRDPRAVFRSRERTKGDLMIDSRIVMGQHEQKLKKEDQPYYVMQVICQSQLEIYKTIQSLPKALQERYLLVRYEDLARAPVAQTSRMYEFVGLEFLPHLQTWVHNITRGKGMGDHAFHTNARDALNVSQAWRWSLPYEKVSRLQKACGDAMNLLGYRHVRSEQEQRNLLLDLLSTWTVPEQIH [Q8NCG5]”, the “percentage of EdU-negative” value came to 5.16 ± 0.29% with hTERT-HMEC (protein concentration 0.006 µM), 4.77 ± 0.11% in the data set on hTERT-HMEC (protein concentration 0.06 µM), 26 ± 0.23% in the data set on MCF7 (protein concentration 0.006 µM) and 29.1 ± 1.1% with MCF7 (protein concentration 0.06 µM).
Consider “MRPPQCLLHTPSLASPLLLLLLWLLGGGVGAEGREDAELLVTVRGGRLRGIRLKTPGGPVSAFLGIPFAEPPMGPRRFLPPEPKQPWSGVVDATTFQSVCYQYVDTLYPGFEGTEMWNPNRELSEDCLYLNVWTPYPRPTSPTPVLVWIYGGGFYSGASSLDVYDGRFLVQAERTVLVSMNYRVGAFGFLALPGSREAPGNVGLLDQRLALQWVQENVAAFGGDPTSVTLFGESAGAASVGMHLLSPPSRGLFHRAVLQSGAPNGPWATVGMGEARRRATQLAHLVGCPPGGTGGNDTELVACLRTRPAQVLVNHEWHVLPQESVFRFSFVPVVDGDFLSDTPEALINAGDFHGLQVLVGVVKDEGSYFLVYGAPGFSKDNESLISRAEFLAGVRVGVPQVSDLAAEAVVLHYTDWLHPEDPARLREALSDVVGDHNVVCPVAQLAGRLAAQGARVYAYVFEHRASTLSWPLWMGVPHGYEIEFIFGIPLDPSRNYTAEEKIFAQRLMRYWANFARTGDPNEPRDPKAPQWPPYTAGAQQYVSLDLRPLEVRRGLRAQACAFWNRFLPKLLSATDTLDEAERQWKAEFHRWSSYMVHWKNQFDHYSKQDRCSDL”, for which the “percentage of EdU-negative” value was 4.96 ± 0.24% in the data set on hTERT-HMEC (setting [1]), 8.871 ± 0.06% with hTERT-HMEC (setting [2]), 25.5 ± 3.2% with MCF7 (setting [1]) and 27.8 ± 2.5% with MCF7 (setting [2]).
As to “MQAAWLLGALVVPQLLGFGHGARGAEREWEGGWGGAQEEEREREALMLKHLQEALGLPAGRGDENPAGTVEGKEDWEMEEDQGEEEEEEATPTPSSGPSPSPTPEDIVTYILGRLAGLDAGLHQLHVRLHALDTRVVELTQGLRQLRNAAGDTRDAVQALQEAQGRAEREHGRLEGCLKGLRLGHKCFLLSRDFEAQAAAQARCTARGGSLAQPADRQQMEALTRYLRAALAPYNWPVWLGVHDRRAEGLYLFENGQRVSFFAWHRSPRPELGAQPSASPHPLSPDQPNGGTLENCVAQASDDGSWWDHDCQRRLYYVCEFPF [Q9Y240]”, the “percentage of EdU-negative” value in the data set on hTERT-HMEC (setting [3]) is 6.19 ± 0.7%; in the data set with hTERT-HMEC (setting [4]), 6.64 ± 1.2%; in the data set on MCF7 (setting [3]), 24.4 ± 0.81%; in the data set on MCF7 (setting [4]), 27.6 ± 1.3%.
“MKTALILLSILGMACAFSMKNLHRRVKIEDSEENGVFKYRPRYYLYKHAYFYPHLKRFPVQGSSDSSEENGDDSSEEEEEEEETSNEGENNEESNEDEDSEAENTTLSATTLGYGEDATPGTGYTGLAAIQLPKKAGDITNKATKEKESDEEEEEEEEGNENEESEAEVDENEQGINGTSTNSTEAENGNGSSGGDNGEEGEEESVTGANAEDTTETGRQGKGTSKTTTSPNGGFEPTTPPQVYRTTSPPFGKTTTVEYEGEYEYTGANEYDNGYEIYESENGEPRGDNYRAYEDEYSYFKGQGYDGYDGQNYYHHQ”: the “percentage of EdU-negative” value came to 5.184 ± 0.032% with hTERT-HMEC (setting [5]), 5.29 ± 1.4% in the data set on hTERT-HMEC (setting [6]), 21.2 ± 2.7% with MCF7 (setting [5]) and 24.2 ± 2.1% with MCF7 (setting [6]).
Consider “MTGDCMPVLVLMAAVLTVTGAVPVARLRGALPDARGCHIAQFKSLSPQELQAFKRAKDALEESLLLKDCKCRSRLFPRTWDLRQLQVRERPVALEAELALTLKVLEATADTDPALGDVLDQPLHTLHHILSQLRACIQPQPTAGPRTRGRLHHWLHRLQEAPKKESPGCLEASVTFNLFRLLTRDLNCVASGDLCV [Q8IZI9]”, for which the “percentage of EdU-negative” value was 6.75 ± 0.89% in the data set with hTERT-HMEC (setting [7]), 10.9 ± 2.5% in the data set with hTERT-HMEC (setting [8]), 24 ± 2.3% in the data set on MCF7 (setting [7]) and 28.6 ± 4% in the data set with MCF7 (setting [8]).
For “MQGPWVLLLLGLRLQLSLGIIPVEEENPDFWNRQAAEALGAAKKLQPAQTAAKNLIIFLGDGMGVSTVTAARILKGQKKDKLGPETFLAMDRFPYVALSKTYSVDKHVPDSGATATAYLCGVKGNFQTIGLSAAARFNQCNTTRGNEVISVMNRAKKAGKSVGVVTTTRVQHASPAGAYAHTVNRNWYSDADVPASARQEGCQDIATQLISNMDIDVILGGGRKYMFPMGTPDPEYPDDYSQGGTRLDGKNLVQEWLAKHQGARYVWNRTELLQASLDPSVTHLMGLFEPGDMKYEIHRDSTLDPSLMEMTEAALLLLSRNPRGFFLFVEGGRIDHGHHESRAYRALTETIMFDDAIERAGQLTSEEDTLSLVTADHSHVFSFGGYPLRGSSIFGLAPGKARDRKAYTVLLYGNGPGYVLKDGARPDVTESESGSPEYRQQSAVPLDGETHAGEDVAVFARGPQAHLVHGVQEQTFIAHVMAFAACLEPYTACDLAPRAGTTDAAHPGPSVVPALLPLLAGTLLLLGTATAP”, the “percentage of EdU-negative” value was 4.62 ± 0.18% with hTERT-HMEC (setting [9]), 5.34 ± 0.29% with hTERT-HMEC (protein concentration 0.225 µM), 23.9 ± 3.7% in the data set with MCF7 (setting [9]) and 27.2 ± 0.72% in the data set on MCF7 (protein concentration 0.225 µM).
